test: yeast display, Sf9 membrane polyspecificity reagent, FACS + sequencing; frameworks hold sequencing errors
In short: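 Sorting gates, low and high (top ~1%), were placed on anti-HA fluorescence to track expression and on streptavidin fluorescence to track reagent binding. A clone's polyreactivity label is taken from the gate it came out of. The reagent was 10% biotinylated, detergent-solubilized Sf9 membrane, applied for 1 hour at 4 °C to galactose-induced yeast display cells.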

Sequence | polyreactivity (PSR sort gate)
QVQLVESGGGLVQAGGSLRLSCAASGSTYYNAMGWSRQAPGNERELVAAIRFRSGSTYYADSVKGRFTISRDNAKNTVYLQMNSLTPEDTAVYYCAADNKRSWRYAYNYWGQGTQVTVSS | high polyreactivity
QVQLVESGGGLVQAGGSLRLSCAASGSTYYNAMGWYRQAPGKERELVAAIRFRSGSTYYADSVKGRFTISRDNAKNTVYLQMNSLKPEDTAVYYCAADNKRSWRYAYNYWGQGTQVTVSS | high polyreactivity
QVQLVESGGGLVQAGGSLRLSCAASGTFFGYAMGWYRQAPGKERELVAAITSGGSTYYADSVKGRFTISRDNAKNTVYLQMNSLKPEVTAVYYCARVYSRWSYRYDYWGQGTQVTVSS | low polyreactivity
QVQLVESGGGLVQAGGSLRLSCAASGTFFIYAMGWYRQAPGKERELVATISSGGSTNYADSVKGRFTISRDNAKNTVYLQMNSLKPEDTAVYYCAAEWLYPHDGGYPRPMDYWGQGTQVTVSS | low polyreactivity
QVQLVESGGGLVQAGGSLRLSCAASGTFFIYAMGWYRQAPGKERELVATISTGGSTNYADSVKGRFTISRDNAKNTVYLQMNSLKPEDTAVYYFAAEWLYPHDGGYPRPMDYWGQGTQVTVSS | low polyreactivity
QVQLVESGGGLVQAGGSLRLSCAASGTFGVYAMGWYRQAPGKERELVAVITDSGGTNYADSVKGRFTISRDNAKNTVYLQMNSLKPEDTAVYYCNTDAGDYYGENYWGQGTQVTVSS | low polyreactivity
QVQLVESGGGLVQAGGSLRLSCAASGTFSNYAMGWYRQAPGKERELVAGISKRGGSTYYADSVKGRFTISRDNAKNTVYLQMNSLKPEDTAVYYCRVYAYDYWGQGTQVTVSS | low polyreactivity
QVQLVESGGGLVQAGGSLRLSCAASGTFSSYAMGWYRQAPGKERELVAAITNGGNTNYADSVKGRFTISRDNAKNTVYLQMNSLKPEDTAVYYCNARYGNESQGWEDYWGQGTQVTVSS | low polyreactivity
QVQLVESGGGLVQAGGSLRLSCAASGTFTRNVMGWYRQAPGKERELVAAIDNGSSTNYADSVKGRFTISRDNAKNTVYLQINSQKPEDTAVYYCANERPRSAGSAASIEQQMDYWGQGTQVTVSS | low polyreactivity
QVQLVESGGGLVQAGGSLRLSCAASGTFTVNTMGWYRQAPGKERELVAAISTGDTTTYADSVKGRFTISRDNAKNTVYLQMNSLKPEDTAVYYCNVDIGVYAYESDYWGQGTQVTVSS | low polyreactivity
QVQLVESGGGLVQAGGSLRLSCAASGTFYGYAMGGYRQSPGKERELVAAITWSGGSTYYADSVKGRFTISRDNAKNTVYLQMNSLKPEDTAVYYCAASLYSGYDSWGQGTQVTVSS | low polyreactivity
QVQLVESGGGLVQAGGSLRLSCAASGTFYYYAMGWYRQAPGKERELVAAISNGDSTTYADSVKGRFTISRDNAKNTVYLQMTSLKPEDTAVYYCAAYRYTPRTSRGYYYWGQGTQVTVSS | low polyreactivity
QVQLVESGGGLVQAGGSLRLSCAASGTIFDYNAMGWYRQAPGKERELVAAISWRGGTTYYADSVKGRFTISRDNAKNTVYLQMNSLKPEDTAVYYCAAGRRGVYHGGYWGQGTQVTVSS | high polyreactivity
QVQLVESGGGLVQAGGSLRLSCAASGTIFFGNTMGWYRQAPGKERELVAVITSSGGRTFYADSVKGRFTISRDNAKNTVYLHMNSLKPEDTAVYYCAAGHGFYYFTPTHDSWGQGTQVTVSS | high polyreactivity
QVQLVESGGGLVQAGGSLRLSCAASGTIFGGYGRGWYRQAPGKERELVAAITSGSSTYYADSVKGRFTISRDNAKNTVYLQMNSLKPEDTAVYYCAARPFPHSAYEGDYWGRGTQVTVSS | low polyreactivity
QVQLVESGGGLVQAGGSLRLSCAASGTIFGKYAMGWYRQAPGKERELDAAISRAGGRTYYADSVKGRFTISRDNAKNTVYLQMNSLIPEDTAVYYCNAGNLHSGGQRWNLYYWGQCTQVTVSS | high polyreactivity
QVQLVESGGGLVQAGGSLRLSCAASGTIFSVNAMGWYRQRLGKKGSWWPLFLTLLPSTYYADSVKARFTISRDNAKNTVYLQMNSLKPEDTAVYYCNAVYSVDFPTPTSDGDPDGFDYWGQGTQVTVSS | low polyreactivity
QVQLVESGGGLVQAGGSLRLSCAASGTIFTHNAMGWYRQAAGKEREFVAAISSGGSTNYADSVNGRFTISRDNAKNTVYLQMNSLKPQDTAVYYCAKSIDGWYWRRRRYDYWGHGTQVTVSS | low polyreactivity
QVQLVESGGGLVQAGGSLRLSCAASGTIFYIYAMGWYRQAPGKERELVAAITWRGGRTYYADSVKGRFTISRDNAKNTVYLQMNSLKPEDTAVYYCAALYANYYYRYEYWGQGTQVTVSS | high polyreactivity
QVQLVESGGGLVQAGGSLRLSCAASGTLRYYAMGWYRQAPGKERELVAAISKSGGRTYYADSVKGRFTISRDNAKNTVYLQMNSLKPEDTAVYYCAARGWTANYEMDHWGQGTQVTVSS | high polyreactivity
QVQLVESGGGLVQAGGSLRLSCAASGTLYINVMGWYRQAPGKERELVAAISSNGARTYYADSVKGRFTISRDNAKNTVYLQMNSLKPEDTAVYYCNRVASVRARDYDYWGQGTQVTVSS | high polyreactivity

Sequence | polyreactivity (PSR sort gate)
QVQLVESGGGLVQAGGSLRLSCAASGTMGWYRQAPGKERELVAAISSSDRTSYADSVKGRFTISRDNAKNTVYLQMNSLKPEDTAVYYCNASTVFAWRTTTLKLFYTAHDYWGQGTQVTVSS | low polyreactivity
QVQLVESGGGLVQAGGSLRLSCAASGTTFAWNTMGWYRQAPGKERELVARISRRSVSTYYADSVKGRFTISRDNAKNTVYLQMNSLKPEDTAVYYCAADYFSYQKYDYWGQGTQVTVSS | low polyreactivity
QVQLVESGGGLVQAGGSLRLSCAASGTTFVIYAKGWYRQAPGKERELVASISGSGGSTFYADSVKGRFTISRDNAKITVYLQMNSLKPEDTAVYYCAAAVGVGRSGGTYDYWGQGTQVTVSS | low polyreactivity
QVQLVESGGGLVQAGGSLRLSCAASGTTISNYAMGWYRQAPGKERELVAGIDWSGGSTYYADSVKGRFTISRDNAKNTVYLHMNSLKPEDTAVYYCAKRVWYHGRKLRGYYWGQGTQVTVSS | low polyreactivity
QVQLVESGGGLVQAGGSLRLSCAASGTTLYWNAMGWYRQAPGKERELVAAISRSGGSTYYADSVKGRFTISRDNAKNTVYLQMNSLKPEDTAVYYCAARRYVPHTEYYYWGQGTQVTVSS | low polyreactivity
QVQLVESGGGLVQAGGSLRLSCAASGTTSPNAMGWYRQAPGKERELVAAMWSGGTYYADSVKGRFTISRDNAKNTVYLQMNSLKPEDTAVYYCAADGEFRRAWYEGDYWGQGTQVTVSS | low polyreactivity
QVQLVESGGGLVQAGGSLRLSCAASGVIFSFYAMGWDREAPGKERELVAAISSSGSTNYADSVKGRFTISRDNAKNTVYLQMNSLKPEDTAVYYCNTYFRYFSFYGRPFDYWGQGTQVTVSS | high polyreactivity
QVQLVESGGGLVQAGGSLRLSCAASGVTFRLDAMGCYRQAPGKDRELVAAISRSGTSTYYADSVKGRFTISRDNPKNTVYLHMNTRKPDDTAVYYCNTARYRYAWYTRYVSWGQGTQVTVSS | high polyreactivity
QVQLVESGGGLVQAGGSLRLSCAASGYAMGWYRQAPGKERELVAAISWSGDITYADSVKGRFTISRDNAKNTVYLQMNSLKPEDTAVYYCNADRYTGRDGEQSLDYWGQGTQVTVSS | low polyreactivity
QVQLVESGGGLVQAGGSLRLSCAASGYDMGWYRQAPGKERELVAAISRGGSTSYADSVKGRFTISRENAKNTVYLQMNSLKPEDTAVYYCAARYGSYRVGYDYWGQGTQVTVSS | low polyreactivity
QVQLVESGGGLVQAGGSLRLSCAASGYIFAENAMGWYRQAPGKERELVATITYIGGSTHYADSVKGRFTISRDNAKNTVYLQMNSLKPEDTAVYYCNADNSTYYRSDFGYWGQGTQVTVSS | low polyreactivity
QVQLVESGGGLVQAGGSLRLSCAASGYIFAVYAMGWYIQAPGKEREFVAVITWRGGSTYYADSVKGRFTISRDNAKNTVYLHMNSLKPEDTAVYYCAADVYAQYDYWGQGTQVTVSS | high polyreactivity
QVQLVESGGGLVQAGGSLRLSCAASGYIFDFYDMGWYRQAPGKERELVAAITSGGSTNYADSVKGRFTISRDNAKNTVYLQMNSLKPEDTAVYYCAASFVGHIYWGARVPYYYNHDYWGQGTQVTVSS | high polyreactivity
QVQLVESGGGLVQAGGSLRLSCAASGYIFDHYAMGWYRQAPGKEREFVAAISRSAGSTYYADSVKGRFTISRDNAQNTVYLQMNSLKPEDTAVYYCNAVVAVRSWRKYEYWGQGTQVTVSS | high polyreactivity
QVQLVESGGGLVQAGGSLRLSCAASGYIFDIYAMGWYRQAPGKEMQLVAVITRSGGGTYYADSVKGRFTISRDNAKNTVYLQMNSLKPEDTAVYYCAAESFVYGGSDYDYWGQGTQVTVSS | low polyreactivity
QVQLVESGGGLVQAGGSLRLSCAASGYIFDRNAMGWYRQAPGKERELVAAITKRGGITYYADSVKGRFTISRDNAKNTVYLQMNSLKPEDTAVFYWNALARSSRYDYWGQGTQVTVSS | high polyreactivity
QVQLVESGGGLVQAGGSLRLSCAASGYIFDRNSMGWYRQAPGKERELVAAITKRGGITYYADSVKGRFTISRDNAKNTVYLQMNSLKPEDTAVYYCNALARSSRYDYWGQGTQVTVSS | high polyreactivity
QVQLVESGGGLVQAGGSLRLSCAASGYIFDRYAMGWYRKAPGKEREMVAPISGRGGSTYYADSVKGRFSISRDNAKNTVFLQMNSLKPEDTAVYYCARDVYVRNGQRARYVSWGQGTQVTVSS | high polyreactivity
QVQLVESGGGLVQAGGSLRLSCAASGYIFDYNAMGWYRQAPGKERELVAAITFRDGSTYADSVKGRFTISRDNAKNTVYLQMNSLKPEDTAVYYCNRRSQVHSHSKHDYWGQGTLVTVSS | low polyreactivity
QVQLVESGGGLVQAGGSLRLSCAASGYIFERNAMGWYRQAPGKERELVAAITDDGDDTYYADSVKGRFTISRDNAKNTVFLLMNSLKPEDTAVYYCAKDLYYGDYYYWGQGTQVTVSS | low polyreactivity
